From publication PMC10419011 come the findings set out here.

Experiment [1] has as its target neuropeptide Y (Homo sapiens), P01303. Briefly: competition. To be noted: remark: other sources report otherwise.
Experiment [2] concerns the target K^18-TAMRA-NPY. As to the kind of experiment: fluorescence polarisation; various concentrations of receptor in small DMPC/DHPC bicelles with 50 nM (K^18-TAMRA)-NPY, 1 h at room temperature, measured at 20 °C; sigmoidal dose-response fit. In general terms: Polarisation of emitted light reports the rotation of a fluorescent probe.

B1: neuropeptide Y receptor Y2, P49146 (protein)
chain: MGPIGAEADENQTVEEMKVEQYGPQTTPRGELVPDPEPELIDSTKLIEVQVVLILAYCSIILLGVIGNSLVIHVVIKFKSMRTVTNFFIANLAVADLLVNTLCLPFTLTYTLMGEWKMGPVLCHLVPYAQGLAVQVSTITLTVIALDRHRCIVYHLESKISKRISFLIIGLAWGISALLASPLAIFREYSLIEIIPDFEIVACTEKWPGEEKSIYGTVYSLSSLLILYVLPLGIISFSYTRIWSKLKNHVSPGAANDHYHQRRQKTTKMLVCVVVVFAVSWLPLHAFQLAVDIDSQVLDLKEYKLIFTVFHIIAMCSTFANPLLYGWMNSNYRKAFLSAFRCEQRLDAIHSEVSVTFKAKKNLEVRKNSGPNDSFTEATNV
The term Kd denotes the free concentration of one partner at which half of the binding sites on the other are occupied at equilibrium, for simple one-to-one binding. Low values mean tighter binding, high ones weaker binding. B1 registered a Kd in experiment [1] of 2.3 nM. In other words, the single-digit nanomolar range.

B2: Y2R_A202^45.49C-Δ6Cys-polyHis, P49146 1-381 (receptor)
chain: MGPIGAEADENQTVEEMKVEQYGPQTTPRGELVPDPEPELIDSTKLIEVQVVLILAYASIILLGVIGNSLVIHVVIKFKSMRTVTNFFIANLAVADLLVNTLALPFTLTYTLMGEWKMGPVLCHLVPYAQGLAVQVSTITLTVIALDRHRAIVYHLESKISKRISFLIIGLAWGISALLASPLAIFREYSLIEIIPDFEIVCCTEKWPGEEKSIYGTVYSLSSLLILYVLPLGIISFSYTRIWSKLKNHVSPGAANDHYHQRRQKTTKMLVSVVVVFAVSWLPLHAFQLAVDIDSQVLDLKEYKLIFTVFHIIAMASTFANPLLYGWMNSNYRKAFLSAFRSEQRLDAIHSEVSVTFKAKKNLEVRKNSGPNDSFTEATNV
modifications: not checked
For the molecule B2, the dissociation constant Kd in experiment [2] is 61.4 nM. This counts as double-digit nanomolar.
